Source: PMC3580588, “Fully recombinant IgG2a Fc multimers (stradomers) effectively treat collagen-induced arthritis and prevent idiopathic thrombocytopenic purpura in mice” (Arthritis Research & Therapy, 2012)
Where two headings read alike, the source gives them in different places.

T1: recombinant mouse FcγRI (mouse, UniProt P26151 25-297)
T1 construct: mouse Fc gamma receptor I, recombinant; source: bought: R&D Systems
T1 sequence (looked up): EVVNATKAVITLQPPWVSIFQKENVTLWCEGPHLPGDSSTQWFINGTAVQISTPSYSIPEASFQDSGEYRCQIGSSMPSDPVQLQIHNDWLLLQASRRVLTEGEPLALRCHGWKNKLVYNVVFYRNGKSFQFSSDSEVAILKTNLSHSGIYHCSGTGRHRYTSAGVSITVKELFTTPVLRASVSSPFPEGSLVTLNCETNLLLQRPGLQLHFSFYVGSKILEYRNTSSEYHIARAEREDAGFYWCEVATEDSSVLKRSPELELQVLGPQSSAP

T2: recombinant mouse SIGN-R1 (mouse), Q8CJ91
T2 chain: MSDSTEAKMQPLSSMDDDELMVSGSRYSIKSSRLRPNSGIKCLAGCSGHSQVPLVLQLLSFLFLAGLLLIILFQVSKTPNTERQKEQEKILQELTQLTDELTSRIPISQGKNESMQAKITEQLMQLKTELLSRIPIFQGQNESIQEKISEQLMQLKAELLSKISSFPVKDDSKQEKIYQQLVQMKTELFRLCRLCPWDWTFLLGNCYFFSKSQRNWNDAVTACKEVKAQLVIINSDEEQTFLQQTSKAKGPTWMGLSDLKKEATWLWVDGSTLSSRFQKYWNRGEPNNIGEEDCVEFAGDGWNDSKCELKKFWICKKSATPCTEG

B1: recombinant mouse FcγRIIb (receptor, UniProt P08101 30-210, looked up)
chain: THDLPKAVVKLEPPWIQVLKEDTVTLTCEGTHNPGNSSTQWFHNGRSIRSQVQASYTFKATVNDSGEYRCQMEQTRLSDPVDLGVISDWLLLQTPQLVFLEGETITLRCHSWRNKLLNRISFFHNEKSVRYHHYSSNFSIPKANHSHSGDYYCKGSLGRTLHQSKPVTITVQGPKSSRSLP
notes: mouse Fc gamma receptor IIb, recombinant; His tag and catalogue number are told for the biolayer interferometry only; also called His-tagged mouse FcγRIIb; source: bought: R&D Systems
B2: recombinant mouse FcγRIII (receptor, UniProt P08508 31-215, looked up)
chain: ALPKAVVKLDPPWIQVLKEDMVTLMCEGTHNPGNSSTQWFHNGRSIRSQVQASYTFKATVNDSGEYRCQMEQTRLSDPVDLGVISDWLLLQTPQRVFLEGETITLRCHSWRNKLLNRISFFHNEKSVRYHHYKSNFSIPKANHSHSGDYYCKGSLGSTQHQSKPVTITVQDPATTSSISLVWYHT
notes: mouse Fc gamma receptor III, recombinant; His tag and catalogue number are told for the biolayer interferometry only; also called His-tagged mouse FcγRIII; source: bought: R&D Systems
B3: 2A-ILZN: stradomer with the isoleucine zipper linked to the amino terminus of murine IgG2a Fc (Fc fusion)
chain: EPRGPTIKPCPPCKCPAPNLLGGPSVFIFPPKIKDVLMISLSPIVTCVVVDVSEDDPDVQISWFVNNVEVHTAQTQTHREDYNSTLRVVSALPIQHQDWMSGKEFKCKVNNKDLPAPIERTISKPKGSVRAPQVYVLPPPEEEMTKKQVTLTCMVTDFMPEDIYVEWTNNGKTELNYKNTEPVLDSDGSYFMYSKLRVEKKNWVERNSYSCSVVHEGLHNHHTTKSFSRTPGK
modifications: not checked
B4: 2A-ILZC: stradomer with the isoleucine zipper linked to the carboxy terminus of murine IgG2a Fc (Fc fusion)
chain: B3 chain
modifications: not checked
B5: recombinant murine IgG2a Fc (domain or fragment, mouse, UniProt P01863 98-330, looked up)
chain: B3 chain
notes: murine IgG2a Fc: hinge, CH2 and CH3 domains, no Fab region; Runs as a homodimer (45 kDa) on non-reducing SDS-PAGE, with a weaker band at about 90 kDa; source: recombinant, from a cDNA construct; host and purification are stated for the stradomers only (HEK293, protein A-derived column)
B6: recombinant mouse FcγRIV (receptor, UniProt A0A0B4J1G0 21-203, looked up)
chain: GLQKAVVNLDPKWVRVLEEDSVTLRCQGTFSPEDNSIKWFHNESLIPHQDANYVIQSARVKDSGMYRCQTALSTISDPVQLEVHMGWLLLQTTKWLFQEGDPIHLRCHSWQNRPVRKVTYLQNGKGKKYFHENSELLIPKATHNDSGSYFCRGLIGHNNKSSASFRISLGDPGSPSMFPPWHQ
notes: mouse Fc gamma receptor IV, recombinant; source: bought: R&D Systems

Columns and labels:
[1] = biological target: recombinant mouse FcγRIII (mouse) (UniProt P08508); experiment: SPR; Biacore 3000 or T100; receptors immobilised by amine coupling on CM4 (FcγRs) or CM5 (SIGN-R1) chips; samples 1,000 nM to 0.5 nM in HBS-EP at 20 μl/min; 1:1 Langmuir kinetic model; molecular mass of 50 kDa assigned to homodimer isolates and 150 kDa to all other preparations
[2] = biological target: recombinant mouse FcγRIIb (mouse) (UniProt P08101); experiment: as above
[3] = biological target: recombinant mouse FcγRIV (mouse); experiment: as above
recombinant mouse FcγRI = biological target: T1, recombinant mouse FcγRI; experiment: as above
[4] = biological target: recombinant mouse SIGN-R1 (mouse) (UniProt Q8CJ91); experiment: as above
[5] = biological target: recombinant mouse FcγRI (mouse) (UniProt P26151); experiment: as above
[6] = biological target: B5; experiment: as above; conditions: both partners purified
[7] = biological target: T2, recombinant mouse SIGN-R1 (mouse), …; experiment: as above
[8] = biological target: the molecule itself; experiment: SDS-PAGE, nonreduced against reduced; 0.5 to 2 μg of purified protein on 4-12% Bis-Tris gels, Coomassie stain; multimers present under denaturing but not reducing conditions (covalently linked)

| Molecule | Kd [1] | Kd [2] | Kd [3] | Kd [6] | other results |
| --- | --- | --- | --- | --- | --- |
| 2A-2HC: stradomer with hinge of human IgG2 linked to the carboxy terminus of murine IgG2a Fc (unfractionated) (Fc fusion) | 4.2 nM | 3.3 nM | 3.03 nM |  | Kd (recombinant mouse FcγRI): 9.12 nM |
| 2A-2HN: stradomer with hinge of human IgG2 linked to the amino terminus of murine IgG2a Fc (Fc fusion) | 4.4 nM | 3.4 nM | 7.6 nM |  | Kd [4]: 109 nM; Kd (recombinant mouse FcγRI): 16.3 nM |
| 2A-ILZC: stradomer with the isoleucine zipper linked to the carboxy terminus of murine IgG2a Fc (Fc fusion) | 151 nM | 455 nM | 63.6 nM |  | Kd [5]: 63.4 nM |
| 2A-ILZN: stradomer with the isoleucine zipper linked to the amino terminus of murine IgG2a Fc (Fc fusion) | 2.3 nM | 3.8 nM | 0.46 nM |  | Kd [5]: 6.71 nM |
| B1 |  |  |  | 289 nM |  |
| B2 |  |  |  | 248 nM |  |
| B3 |  |  |  |  | Kd [7]: 134 nM |
| B4 |  |  |  |  | Kd [7]: 43.9 nM |
| B5 |  |  |  |  | stoichiometry N [8]: 2; Kd (recombinant mouse FcγRI; both partners purified): 17.4 nM |
| B6 |  |  |  | 27.8 nM |  |
